Measurements: paper PMC4498498

B1: CaADH (Clostridium autoethanogenum DSM 10061) (protein)
chain: KGFAMLGINKLGWIEKKNPVPGPYDAIVHPLAVSPCTSDIHTVFEGALGNRENMILGHEAVGEIAEVGSEVKDFKVGDRVIVPCTTPDWRSLEVQAGFQQHSNGMLAGWKFSNFKDGVFADYFHVNDADMNLAILPDEIPLESAVMMTDMMTTGFHGAELADIKMGSSVVVIGIGAVGLMGIAGSKLRGAGRIIGVGSRPVCVETAKFYGATDIVNYKNGDIVEQIMDLTHGKGVDRVIMAGGGAETLAQAVTMVKPGGVISNINYHGSGDTLPIPRVQWGCGMAHKTIRGGLCPGGRLRMEMLRDLVLYKRVDLSKLVTHVFDGAENIEKALLLMKNKPKDLIKSVVTF

Columns and labels:
Assay in all cases: purified protein
Conditions in all cases: 0.2 mM NADPH, 50 mM Tris-HCl pH 7.5, 1 mM DTT, 25°C
CC(=O)C(C)O = test system: CC(=O)C(C)O
purified protein [1] = substrate: CCC(C)=O
purified protein [2] = substrate: CC(=O)C(C)O; remark: listed apart in the source
purified protein [3] = substrate: CC(C)=O

| Molecule | Km (CC(=O)C(C)O) | kcat (CC(=O)C(C)O) | kcat/Km (CC(=O)C(C)O) | Km (purified protein [1]) | kcat (purified protein [1]) | kcat/Km (purified protein [1]) | Km (purified protein [2]) | kcat (purified protein [2]) | kcat/Km (purified protein [2]) | Km (purified protein [3]) | kcat (purified protein [3]) | kcat/Km (purified protein [3]) |
| --- | --- | --- | --- | --- | --- | --- | --- | --- | --- | --- | --- | --- |
| CaADH (Clostridium autoethanogenum DSM 10061; S199R) | 34 ± 5 mM | 95 ± 4 s⁻¹ | 2800 M⁻¹ s⁻¹ |  |  |  |  |  |  |  |  |  |
| B1 |  |  |  | 1.8 ± 0.2 mM | 37 s⁻¹ | 21000 M⁻¹ s⁻¹ | 98 ± 10 mM | 150 ± 8 s⁻¹ | 1600 M⁻¹ s⁻¹ | 1.0 ± 0.1 mM | 55 s⁻¹ | 55000 M⁻¹ s⁻¹ |
